# In patent publication US20240368283A1 (published 2024):
# T1: human FcγRIIβ (human, UniProt P31994 46-217, limits assumed)
# T1 construct: also called FcγRIIb; R2b
# T1 sequence (looked up): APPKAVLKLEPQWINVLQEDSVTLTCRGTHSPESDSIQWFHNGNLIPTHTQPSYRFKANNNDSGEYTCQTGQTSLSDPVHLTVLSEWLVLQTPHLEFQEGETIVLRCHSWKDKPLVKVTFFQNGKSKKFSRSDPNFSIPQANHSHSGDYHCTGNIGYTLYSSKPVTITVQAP
# T2: huFcγRIIβ (human, UniProt P31994 46-217)
# T2 construct: also called huR2b; human FcγRIIβ (soluble antigen)
# T2 sequence (looked up): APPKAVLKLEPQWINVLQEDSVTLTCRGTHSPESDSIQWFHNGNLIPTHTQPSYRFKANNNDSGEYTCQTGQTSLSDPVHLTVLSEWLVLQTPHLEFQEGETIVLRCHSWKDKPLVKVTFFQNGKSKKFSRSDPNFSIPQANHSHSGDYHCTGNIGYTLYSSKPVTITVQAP
# T3: huFcγRIIα (R131) (human, UniProt P12318 36-218)
# T3 construct: R131 allotype; also called human FcγRIIα R131 (soluble antigen)
# T3 sequence (looked up): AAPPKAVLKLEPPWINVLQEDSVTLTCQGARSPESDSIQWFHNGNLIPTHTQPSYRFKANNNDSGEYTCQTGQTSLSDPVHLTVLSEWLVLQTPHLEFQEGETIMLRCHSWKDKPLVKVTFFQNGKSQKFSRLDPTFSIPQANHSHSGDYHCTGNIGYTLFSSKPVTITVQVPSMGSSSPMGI
# Columns and labels:
# [1] = target: T1, human FcγRIIβ; assay: SPR, antibody captured on ProA/G HC30M chip, recombinant human FcγRIIβ injected (4 nM-5 uM); average steady state KD
# Description: (§1) Example 52: The binding of anti-FcγRIIβ antibodies to human FcγRIIβ was evaluated. Antibodies were captured on ProA/G HC30M chip at 5 ug/mL, 1 ug/mL, and 0.2 ug/mL for 15 minutes. Six buffer injections were made over the chip followed by injections of increasing concentrations of recombinant human FcγRIIβ (4 nm-5 uM). The association was measured during each injection for 5 minutes and the dissociation was measured for 10 minutes post injection with buffer flow (1×HBSTE+ BSA).
# [2] = target: T1, human FcγRIIβ; assay: SPR, antibody captured on ProA/G HC30M chip, recombinant human FcγRIIβ injected (4 nM-5 uM); average kinetic KD
# Description: as §1
# [3] = target: T4, CyR2b (monkey); assay: SPR, antibody captured on protein A/G chip, receptor injected as analyte
# T4 construct: also called monkey FcγRIIβ; Cy FcγRIIβ
# Description: (§2) Example 21: Anti-FcγRIIβ antibodies were captured on protein A/G chips at 10 ug/mL, 1 ug/mL and 0.1 ug/mL concentrations (in duplicates). Each analyte binder was injected at 7 concentrations with 5-fold serial dilutions, with the starting concentration for FcγRs at 5 uM, and for PD-1 at 0.5 uM. […] Kinetics data was subsequently collected.
# [4] = target: T2, huFcγRIIβ; assay: as above
# Description: as §2
# [5] = target: T5, CyR2a (monkey); assay: as above
# T5 construct: also called monkey FcγRIIα; Cy FcγRIIα
# Description: as §2
# [6] = target: huR2a (human, UniProt P12318 36-218); assay: as above
# Description: as §2
# [7] = target: human FcγRI (human, UniProt P12314 16-288, limits assumed); assay: BLI, antibody captured on AHC biosensors, receptor in two-fold dilutions
# Sequence of human FcγRI (P12314 16-288 limits assumed): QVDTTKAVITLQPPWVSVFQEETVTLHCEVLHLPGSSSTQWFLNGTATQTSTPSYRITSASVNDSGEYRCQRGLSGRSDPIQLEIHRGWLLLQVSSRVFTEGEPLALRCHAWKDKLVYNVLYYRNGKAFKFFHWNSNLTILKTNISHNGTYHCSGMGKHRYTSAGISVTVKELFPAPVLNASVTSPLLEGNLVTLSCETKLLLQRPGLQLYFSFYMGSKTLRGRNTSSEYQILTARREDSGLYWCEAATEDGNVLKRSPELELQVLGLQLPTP
# Description: (§3) Example 20: Anti-FcγRIIβ antibodies were captured on AHC biosensors at a concentration of 5 μg/mL. Antigens (FcγRI or FcγRIIIα) were serially diluted two-fold with a starting concentration of 5 μM. The biosensors with immobilized antibodies were dipped into the different antigen concentrations and kinetics data were collected.
# [8] = target: human FcγRIIIα (human, UniProt P08637 17-208, limits assumed); assay: as above
# Sequence of human FcγRIIIα (P08637 17-208 limits assumed): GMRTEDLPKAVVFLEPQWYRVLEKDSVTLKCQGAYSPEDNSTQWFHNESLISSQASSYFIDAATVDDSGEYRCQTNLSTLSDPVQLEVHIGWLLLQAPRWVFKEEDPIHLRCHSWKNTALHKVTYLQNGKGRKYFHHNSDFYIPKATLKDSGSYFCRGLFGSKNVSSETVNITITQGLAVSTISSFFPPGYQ
# Description: as §3
# [9] = target: T3, huFcγRIIα (R131); assay: BLI, antibody captured on AHC biosensors, receptor in solution
# Description: as §3, with “19:” for “20:”, “(FcγRIIα/FcγRIIβ)” for “(FcγRI or FcγRIIIα)”, “5u M.” for “5 μM.”
# [10] = target: T2, huFcγRIIβ; assay: as above
# Description: as §3, with “19:” for “20:”, “(FcγRIIα/FcγRIIβ)” for “(FcγRI or FcγRIIIα)”, “5u M.” for “5 μM.”
# [11] = target: T6, FcRN; assay: BLI (AHC biosensors by Example 20); table headed FcRN Binding
# T6 construct: also called neonatal Fc receptor
# [12] = target: T2, huFcγRIIβ; assay: BLI; ratio of the KD for huFcγRIIα (R131) to the KD for huFcγRIIβ
# Description: as §3, with “19:” for “20:”, “(FcγRIIα/FcγRIIβ)” for “(FcγRI or FcγRIIIα)”, “5u M.” for “5 μM.”
Kd [3] [nM],Kd [4] [nM],Kd [5] [nM],Kd [6] [nM],Kd [9] [nM],Kd [10] [nM],Kd [11] [nM],koff [11] [s⁻¹],kon [11] [M⁻¹ s⁻¹],Fold selectivity [12] [fold],Binder,binding result [7],binding result [8],also measured
,,,,,,,,,,"ARB40 (antibody, human IgG1, kappa, copies: 2 + 2) heavy: not shown light: DIVMTQSPLSLPVTPGEPASISCRSSRSLVHGSGDNYLHWYLQKPGQSPQLLIYMASNRAPGVPDRFSGSGSGTDFTLKISRVEAEDVGVYYCMQALRAPFSFGGGTKVEIKRTVAAPSVFIFPPSDEQLKSGTASVVCLLNNFYPREAKVQWKVDNALQSGNSQESVTEQDSKDSTYSLSSTLTLSKADYEKHKVYACEVTHQGLSSPVTKSFNRGEC",,,Kd [1]: 120 nM; Kd [2]: 120 nM
1210,56.1,1120,633,,,,,,,"TA30 (bispecific antibody, human IgG1, kappa) heavy: not shown light: DIQMTQSPSSLSASVGDRVTITCQASQSPNNLLAWYQQKPGKAPKLLIYGASDLPSGVPSRFSGSGSGTDFTLTISSLQPEDFATYYCQNNYYVGPVSYAFGGGTKVEIKRTVAAPSVFIFPPSDEQLKSGTASVVCLLNNFYPREAKVQWKVDNALQSGNSQESVTEQDSKDSTYSLSSTLTLSKADYEKHKVYACEVTHQGLSSPVTKSFNRGEC",,,
,,,,,,,,,,"TA25 (bispecific antibody, human IgG1, kappa) heavy: not shown light: DIQMTQSPSSLSASVGDRVTITCQASQSPNNLLAWYQQKPGKAPKLLIYGASDLPSGVPSRFSGSGSGTDFTLTISSLQPEDFATYYCQNNYYVGPVSYAFGGGTKVEIKRTVAAPSVFIFPPSDEQLKSGTASVVCLLNNFYPREAKVQWKVDNALQSGNSQESVTEQDSKDSTYSLSSTLTLSKADYEKHKVYACEVTHQGLSSPVTKSFNRGEC [TA25, listing 1 of 2 here]",no binding (tested: 5 µM starting concentration),no binding (tested: 5 µM starting concentration),
,,,,,,,,,,"TA28 (bispecific antibody, human IgG1, kappa) heavy: not shown light: DIQMTQSPSSLSASVGDRVTITCQASQSPNNLLAWYQQKPGKAPKLLIYGASDLPSGVPSRFSGSGSGTDFTLTISSLQPEDFATYYCQNNYYVGPVSYAFGGGTKVEIKRTVAAPSVFIFPPSDEQLKSGTASVVCLLNNFYPREAKVQWKVDNALQSGNSQESVTEQDSKDSTYSLSSTLTLSKADYEKHKVYACEVTHQGLSSPVTKSFNRGEC [TA28, listing 1 of 2 here]",no binding (tested: 5 µM starting concentration),no binding (tested: 5 µM starting concentration),
,,,,115,30.3,250,0.1,400000,4,"TA39 (bispecific antibody, human IgG1, kappa) heavy: not shown light: DIQMTQSPSSLSASVGDRVTITCQASQSPNNLLAWYQQKPGKAPKLLIYGASDLPSGVPSRFSGSGSGTDFTLTISSLQPEDFATYYCQNNYYVGPVSYAFGGGTKVEIKRTVAAPSVFIFPPSDEQLKSGTASVVCLLNNFYPREAKVQWKVDNALQSGNSQESVTEQDSKDSTYSLSSTLTLSKADYEKHKVYACEVTHQGLSSPVTKSFNRGEC [TA39, listing 1 of 2 here]",,,
3660,299,2300,4060,141,45,289,0.118,407000,3,"TA36 (bispecific antibody, human IgG1, kappa) heavy: not shown light: DIQMTQSPSSLSASVGDRVTITCQASQSPNNLLAWYQQKPGKAPKLLIYGASDLPSGVPSRFSGSGSGTDFTLTISSLQPEDFATYYCQNNYYVGPVSYAFGGGTKVEIKRTVAAPSVFIFPPSDEQLKSGTASVVCLLNNFYPREAKVQWKVDNALQSGNSQESVTEQDSKDSTYSLSSTLTLSKADYEKHKVYACEVTHQGLSSPVTKSFNRGEC [TA36, listing 1 of 2 here]",,,
,,,,623,11,273,0.103,378000,56,"TA28 (bispecific antibody, human IgG1, kappa) heavy: not shown light: DIQMTQSPSSLSASVGDRVTITCQASQSPNNLLAWYQQKPGKAPKLLIYGASDLPSGVPSRFSGSGSGTDFTLTISSLQPEDFATYYCQNNYYVGPVSYAFGGGTKVEIKRTVAAPSVFIFPPSDEQLKSGTASVVCLLNNFYPREAKVQWKVDNALQSGNSQESVTEQDSKDSTYSLSSTLTLSKADYEKHKVYACEVTHQGLSSPVTKSFNRGEC [TA28, listing 2 of 2 here]",,,
3130,154,2480,6510,715,50.2,236,0.0951,403000,14,"TA26 (bispecific antibody, human IgG1, kappa) heavy: not shown light: DIQMTQSPSSLSASVGDRVTITCQASQSPNNLLAWYQQKPGKAPKLLIYGASDLPSGVPSRFSGSGSGTDFTLTISSLQPEDFATYYCQNNYYVGPVSYAFGGGTKVEIKRTVAAPSVFIFPPSDEQLKSGTASVVCLLNNFYPREAKVQWKVDNALQSGNSQESVTEQDSKDSTYSLSSTLTLSKADYEKHKVYACEVTHQGLSSPVTKSFNRGEC [TA26, listing 1 of 2 here]",,,
1500,253,777,6080,114000,122,231,0.0788,341000,934,"TA25 (bispecific antibody, human IgG1, kappa) heavy: not shown light: DIQMTQSPSSLSASVGDRVTITCQASQSPNNLLAWYQQKPGKAPKLLIYGASDLPSGVPSRFSGSGSGTDFTLTISSLQPEDFATYYCQNNYYVGPVSYAFGGGTKVEIKRTVAAPSVFIFPPSDEQLKSGTASVVCLLNNFYPREAKVQWKVDNALQSGNSQESVTEQDSKDSTYSLSSTLTLSKADYEKHKVYACEVTHQGLSSPVTKSFNRGEC [TA25, listing 2 of 2 here]",,,
,,,,,,,,,,"TA36 (bispecific antibody, human IgG1, kappa) heavy: not shown light: DIQMTQSPSSLSASVGDRVTITCQASQSPNNLLAWYQQKPGKAPKLLIYGASDLPSGVPSRFSGSGSGTDFTLTISSLQPEDFATYYCQNNYYVGPVSYAFGGGTKVEIKRTVAAPSVFIFPPSDEQLKSGTASVVCLLNNFYPREAKVQWKVDNALQSGNSQESVTEQDSKDSTYSLSSTLTLSKADYEKHKVYACEVTHQGLSSPVTKSFNRGEC [TA36, listing 2 of 2 here]",no binding (tested: 5 µM starting concentration),no binding (tested: 5 µM starting concentration),
,,,,,,,,,,"TA39 (bispecific antibody, human IgG1, kappa) heavy: not shown light: DIQMTQSPSSLSASVGDRVTITCQASQSPNNLLAWYQQKPGKAPKLLIYGASDLPSGVPSRFSGSGSGTDFTLTISSLQPEDFATYYCQNNYYVGPVSYAFGGGTKVEIKRTVAAPSVFIFPPSDEQLKSGTASVVCLLNNFYPREAKVQWKVDNALQSGNSQESVTEQDSKDSTYSLSSTLTLSKADYEKHKVYACEVTHQGLSSPVTKSFNRGEC [TA39, listing 2 of 2 here]",no binding (tested: 5 µM starting concentration),no binding (tested: 5 µM starting concentration),
,,,,,,,,,,"TA26 (bispecific antibody, human IgG1, kappa) heavy: not shown light: DIQMTQSPSSLSASVGDRVTITCQASQSPNNLLAWYQQKPGKAPKLLIYGASDLPSGVPSRFSGSGSGTDFTLTISSLQPEDFATYYCQNNYYVGPVSYAFGGGTKVEIKRTVAAPSVFIFPPSDEQLKSGTASVVCLLNNFYPREAKVQWKVDNALQSGNSQESVTEQDSKDSTYSLSSTLTLSKADYEKHKVYACEVTHQGLSSPVTKSFNRGEC [TA26, listing 2 of 2 here]",no binding (tested: 5 µM starting concentration),no binding (tested: 5 µM starting concentration),
